The numbers were not newly measured in patent US11535641B2, “Method for preparing GOS having reduced allergenicity” (FRIESLANDCAMPINA NEDERLAND B.V., priority 2017, dated 2022), which cites them from elsewhere.

Where two headings read alike, the source gives them in different places. Bounds are passed on as bounds.

The conditions of series [1]: for Ratio in GOS (%) DP2*: lactose not included; for Amount of GOS (content of GOS in total sugar): 24 hours, 53% lactose, 1 U per g lactose.
For series [2] the following is noted: GOS yield about 50% (65° C., 24 hours).
The conditions of series [3]: acetate buffer (pH 6.0).
The mark [4] stands for this setting: comparison of enzymes, GOS yield about 50%.
Where [5] appears, read: comparison of enzymes, typical results when GOS yield about 50% (65° C., 24 hours).

B1: WT strain enzyme: β-galactosidase from Cryptococcus terrestris strain MM13-F2171, SEQ ID NO: 1 (protein, listed as Cryptococcus terrestris)
chain: MIPASALLAAVPLLAQQVSAGILRRQNAAGSDSAAPDSIADASTGVVSSIATEAVSSGATGLVASVAMSFASSMATPTATVTGLSSETGAPSNTPMASASGSVPTTTSAVGSGDFDWVQTDGLPTITTTLATTNQDAITPTATGPVGGQGTPAVNFTDYSSSSLEQFWNDWVGEVEEPPFAYVPEPPNPYPLPNAPPPIYPEYYTKRPKDILPDYKFPKDFLFGWATAAQQWEGAVKADGKGPSIWDWASRFPGFIADNTTSDVGDLGYYLYKEDLARIAALGANVYSFSMFWTRIFPFGKADSPVNQAGIDFYHDLIDYSWSLGIEPVVTLFHWDTPLALQLEYGGFASERIIDDYVNYAETVFKAYNGSVHKWVTFNEPVVFCSQMAAPVNTTLPPNLNSTIYPYTCSYHLVLAHAKTVKRFRELNIQGQIAFKSDNFVGIPWREGNQEDIDAVERHQAYQIGIFAEPIYNTGDWPDIVKNDLSPDILPRFTDDEIAMIKCTADFFPIDGYRDGYVQAVPGGVEACVANISNPLWPACNQVNFYDSTPAGWAIGTFGNWPTTPWLQNTWQFVRPFLADLAKRYPTEGGIYLSEFGFSEPFENDKTFIYQITQDSGRTAYFNSYLGEVLKGIVEDGIPIKGVFGWSMVDNFEWNSGLSTRFGVQYVDYNSPTRQRTFKRSALEMSEFWNAHRCSA
Turning to B1, the “Ratio in GOS (%) DP2*” value in series [1] (setting [4]) is 25.8%. Besides, in series [1] (setting [5]), the “Ratio in GOS (%) DP3” value is on record as 57.5% and the “Ratio in GOS (%) ≥ DP4” value is listed as 16.7%. Besides, in series [1] (reaction temperature 65° C.), the “Ratio in GOS (%) DP3” value is listed as 51.8%, the “Ratio in GOS (%) ≥ DP4” value is 22.1%, the “Amount of GOS (content of GOS in total sugar)” value (“Amount of GOS” for short) is given as 53.4% and the “Ratio in GOS (%) DP2*” value is 26.1%. Moreover, in series [1] (reaction temperature 70° C.), the “Ratio in GOS (%) DP3” value was 47.4%, the “Ratio in GOS (%) ≥ DP4” value is 25.8%, the “Amount of GOS” value was 54.2% and the “Ratio in GOS (%) DP2*” value is 26.8%. Also, in series [2], the “Ratio in DP3 (%) β1-2, β1-3” value was 22.1%; the “Ratio in DP3 (%) β1-4” value is given as 76.3%; the “Ratio in DP3 (%) β1-6” value is given as 1.5%. Moreover, the optimum temperature in series [3] is 70 °C. Also, the enzyme activity retained in series [3] (within the stable temperature range, 30 minutes) is on record as at least 80%.

B2: C. terrestris M6 (mutant strain enzyme 3): β-galactosidase with N-terminal 141 residues of wild-type deleted, SEQ ID NO: 4 (protein, listed as Cryptococcus terrestris)
chain: ATGPVGGQGTPAVNFTDYSSSSLEQFWNDWVGEVEEPPFAYVPEPPNPYPLPNAPPPIYPEYYTKRPKDILPDYKFPKDFLFGWATAAQQWEGAVKADGKGPSIWDWASRFPGFIADNTTSDVGDLGYYLYKEDLARIAALGANVYSFSMFWTRIFPFGKADSPVNQAGIDFYHDLIDYSWSLGIEPVVTLFHWDTPLALQLEYGGFASERIIDDYVNYAETVFKAYNGSVHKWVTFNEPVVFCSQMAAPVNTTLPPNLNSTIYPYTCSYHLVLAHAKTVKRFRELNIQGQIAFKSDNFVGIPWREGNQEDIDAVERHQAYQIGIFAEPIYNTGDWPDIVKNDLSPDILPRFTDDEIAMIKCTADFFPIDGYRDGYVQAVPGGVEACVANISNPLWPACNQVNFYDSTPAGWAIGTFGNWPTTPWLQNTWQFVRPFLADLAKRYPTEGGIYLSEFGFSEPFENDKTFIYQITQDSGRTAYFNSYLGEVLKGIVEDGIPIKGVFGWSMVDNFEWNSGLSTRFGVQYVDYNSPTRQRTFKRSALEMSEFWNAHRCSA
In the case of B2, the “Ratio in GOS (%) DP2*” value in series [1] (setting [4]) is 25.8%; in series [1] (reaction temperature 50° C.) it was 24.7%; in series [1] (reaction temperature 60° C.) it was 25.8%; in series [1] (reaction temperature 65° C.), 26.0%; in series [1] (reaction temperature 70° C.), 26.3%. Moreover, the “Ratio in GOS (%) DP3” value was 54.2% in series [1] (setting [5]); 68.9% in series [1] (reaction temperature 50° C.); 58.2% in series [1] (reaction temperature 60° C.); 53.4% in series [1] (reaction temperature 65° C.); 49.2% in series [1] (reaction temperature 70° C.). In addition, the “Ratio in GOS (%) ≥ DP4” value in series [1] (setting [5]) was 19.9%; in series [1] (reaction temperature 50° C.) it was 6.4%; in series [1] (reaction temperature 60° C.), 16.1%; in series [1] (reaction temperature 65° C.), 20.9%; in series [1] (reaction temperature 70° C.), 24.5%. Further, the “Amount of GOS” value in series [1] (reaction temperature 50° C.) was 46.9%; in series [1] (reaction temperature 60° C.), 52.1%; in series [1] (reaction temperature 65° C.), 53.2%; in series [1] (reaction temperature 70° C.) it was 53.9%. Further, in series [2], the “Ratio in DP3 (%) β1-2, β1-3” value is 22.1%. Further, in series [2], the “Ratio in DP3 (%) β1-4” value is reported as 75.2%. The “Ratio in DP3 (%) β1-6” value in series [2] was 2.7%. In addition, the optimum temperature in series [3] was 70 °C.

B3: C. terrestris M2 (mutant strain enzyme 1): β-galactosidase with N-terminal 130 residues of wild-type deleted, SEQ ID NO: 2 (protein, listed as Cryptococcus terrestris)
chain: ATTNQDAITPTATGPVGGQGTPAVNFTDYSSSSLEQFWNDWVGEVEEPPFAYVPEPPNPYPLPNAPPPIYPEYYTKRPKDILPDYKFPKDFLFGWATAAQQWEGAVKADGKGPSIWDWASRFPGFIADNTTSDVGDLGYYLYKEDLARIAALGANVYSFSMFWTRIFPFGKADSPVNQAGIDFYHDLIDYSWSLGIEPVVTLFHWDTPLALQLEYGGFASERIIDDYVNYAETVFKAYNGSVHKWVTFNEPVVFCSQMAAPVNTTLPPNLNSTIYPYTCSYHLVLAHAKTVKRFRELNIQGQIAFKSDNFVGIPWREGNQEDIDAVERHQAYQIGIFAEPIYNTGDWPDIVKNDLSPDILPRFTDDEIAMIKCTADFFPIDGYRDGYVQAVPGGVEACVANISNPLWPACNQVNFYDSTPAGWAIGTFGNWPTTPWLQNTWQFVRPFLADLAKRYPTEGGIYLSEFGFSEPFENDKTFIYQITQDSGRTAYFNSYLGEVLKGIVEDGIPIKGVFGWSMVDNFEWNSGLSTRFGVQYVDYNSPTRQRTFKRSALEMSEFWNAHRCSA
For the molecule B3, in series [1] (setting [4]), the “Ratio in GOS (%) DP2*” value was 25.3%. In addition, in series [1] (setting [5]), the “Ratio in GOS (%) DP3” value is listed as 60.5% and the “Ratio in GOS (%) ≥ DP4” value is given as 14.2%. Also, in series [2], the “Ratio in DP3 (%) β1-2, β1-3” value is 20.7%; the “Ratio in DP3 (%) β1-4” value is 79.0%; the “Ratio in DP3 (%) β1-6” value is recorded as 0.4%. Further, in series [3], the optimum temperature was 70 °C.
